In US20150125849A1:

Assays:
[1] = target: GFP with His-tag at the C-extreme (pETsa-GFP-his) [GFP: P42212]; experiment: detection of diluted antigen with 5 µg purified IgG (data not shown)
[2] = target: GFP with His-tag at the N-extreme (pETsa-his-GFP) [GFP: P42212]; experiment: as above

antigen dilution at which detected [1]: 32 × dilution
antigen dilution at which detected [2]: 32 × dilution
Substance: His-tag MAb (Invitrogen, Carlsbad, USA) (antibody)
